In the DeepSol protein solubility set:

Experiment: soluble on expression in E. coli; label from the status in PepcDB or PDB records

| Sequence | soluble on expression in E. coli |
| --- | --- |
| MTPPVSAFKKTPKKEEHPLVAIVILDAFDQRFAPTHESYPCFGTIPICNVPAINFALSWLMRTEVKNVMLVVSGLNADHATSVQREWRLAFDEFTVVVCDGASSVGDCMREIHNRELITGDFMLISNPTAVVSSTLSAQISEFRKRRRENPDNVMTLLYSNRENPEHLVLGINSETSKLMLFPAANSLNQLKASKKDFYDEVDIRRDLTPTGIAFCSRLIATQFSDNFDFVGIDDVVREILSKDDILGMSVHVEVLSPKERAFCAYDYESLILLNILMLERWFYPLVPENSDPSRYFSANPRNLYLEENGDEISIKANTWILNNNCSTVCLGVKTDIAYDAFIRNSCIGAHTEISSKTRITSSMIGKNCKIGENCVIEYAFIGDDVVIPNGAHIPKESIIGNGVMYPKELPNIQNTAIFKNAINEETFEKLSSQPIGNVHVSKFRNGGPFWRRSVNGKTNFALEEDDSESEYSESEEEDDGVGNSTKMFHDEVLESMQKILESENSLMRNLILEINSSKLACNVTMDEVARNVFAAFMKLKHNQDFNKMKELIVKWQPLFLNYYKTSAESLKVKSADQKRFELDLKRRCQIQLLLAIEDKFDRDESFGVKAQALVHYLYQEADILDEDSIIEWAGSIAEESKLKGLMKKIVDWLQEDDDEEESEDE | not soluble |
| MTPSRPSPDFPDGGFVQVRGARQHNLKDISVKVPRDALVVFTGVSGSGKSSLAFGTLYAEAQRRYLESVSPYARRLFNQAGVPDVDAIDGLPPAVALQQARGTPTARSSVGSVTTLSNLLRMLYSRAGDYPPGQGIVYAEGFSPNTPEGACPECHGLGRVYTVTEDSMVPDPSLTIRERAVAAWPQAWGGQNQRDILVTLGIDVDVPWRELPEETRHWILFTDEQPVVPVYPGLTPAETQRALKKKMEPSYMGTFSSARRHVLHTFANTESASMKKRVQGYMISEECPLCHGKRLRQEALNVTFAGLDITELSRLPLARVSELLRPYAEEREPGHAERVKNRPEQAIALQRMAADLVKRLDVLLHLGLGYLGLDRSTPTLSPGELQRLRLATQLYSNLFGVVYVLDEPSAGLHPADTEALLSALENLKRGGNSLFVVEHDLDVIRRADWLVDVGPEAGEKGGEILYSGPPEGLKHVPESQTGQYLFADRHTEPHTPREPAGWLELNGVTRNNLDNLDVRFPLGVMTSVTGVSGSGKSTLVSQALVDALAAHFGQPVNPDPEDDEDPADHTAGSARLGGDLAQITRLVRVDQKPIGRTPRSNMATYTGLFDQVRKLFAATPLAKKRGYNAGRFSFNVKGGRCEHCQGEGWVMVELLFLPSVYAPCPVCHGTRYNAETLEVEYRGKNIADVLALTVDEAHDFFADESAIFRALDTLREVGLGYLRLGQPATELSGGEAQRIKLATELRRSGRGGTVYVLDEPTTGLHPADVERLQRQLVKLVDAGNTVIAVEHKMQVVAASDWVLDIGPGAGEDGGRLVAQGTPAEVAQAAGSVTAPYLRAALR | soluble |
| MTQDTQLTFEARDEFNRKSIAEKVITLLRSDITVSPLVIDGSWGLGKTEFCQKLLSLMSTEETHHLIYIDAFKADHADEPLLTVLAKVLEVLPSQEEQQGLIQKAIPALRYGLKTGGKALVAHILRQDTDSIINGFDEEVKQVADKAIDASVESLLKDHVEAESSLQALQQALKSIAEQKPIVLFIDELDRCRPNFSVLMLETIKHTFDVEGVQFVLITNTNQLKASINHCYGPTIDAQRYLDKFIRFSFTLPHTTNENRHDVTMASVTHYKNLVAKSERLQGLSLDRDSDFWLVAQVINTNNISLREVETLVRHIEIYQALFDDQPLSNHTQWAYRLMALLGVLLISFKPNLAKSALINNLDAKDLGNFLGVHSLPKLENNQHPTHCDTLVFMLASECKYNSDFYVPDNPQDKERWEGEANEYFRGRYNLTRNGRMSLVTGAIKGLGLSVNLEHHHHHH | not soluble |
| MTQFAFVFPGQGSQSVGMLAEMAANYPIVEETFAEASAALGYDLWALTQQGPAEELNKTWQTQPALLTASVALWRVWQQQGGKMPALMAGHSLGEYSALVCAGVINFADAVRLVEMRGKFMQEAVPEGTGGMSAIIGLDDASIAKACEESAEGQVVSPVNFNSPGQVVIAGHKEAVERAGAACKAAGAKRALPLPVSVPSHCALMKPAADKLAVELAKITFSAPTVPVVNNVDVKCETDAAAIRDALVRQLYNPVQWTKSVEFIAAQGVEHLYEVGPGKVLTGLTKRIVDTLTASALNEPAALSAALTQ | not soluble |
| MTQHNDNDDDAALFRAAIGPVRPLRPSEMAITIKPPSRPRRRIIQHHQDEAKSKFAQLLRESAPLEAGDTISYRSKALPSRLFQRLKRGQFSVQDELDLHGATVVQAETLLRQFLLEAHMYEYGCVRIIHGKGLQSNGGTPVLKNLVNQLLRLRKDVLAFHSSPPAQGGTGAVLVLLTHH | soluble |
| MTQNTKLRPITPEFDPWEAYMDVDQYGDMQLTNVEFTTTTLCNMRCEHCAVGYTLQPKDPNALPIDLLLKRLEEIPRLRSISITGGEPMLSLKSVKEYVVPLLKYAHERGVRTQINSNLTLDIERYEWIIPYLDVLHISHNWGTVEDFAEIGFA | not soluble |
| MTQQEYQNRRQALLAKMAPGSAAIIFAAPEATRSADSEYPYRQNSDFSYLTGFNEPEAVLILVKSDETHNHSVLFNRIRDLTAEIWFGRRLGQEAAPTKLAVDRALPFDEINEQLYLLLNRLDVIYHAQGQYAYADNIVFAALEKLRHGFRKNLRAPATLTDWRPWLHEMRLFKSAEEIAVLRRAGEISALAHTRAMEKCRPGMFEYQLEGEILHEFTRHGARYPAYNTIVGGGENGCILHYTENECELRDGDLVLIDAGCEYRGYAGDITRTFPVNGKFTPAQRAVYDIVLAAINKSLTLFRPGTSIREVTEEVVRIMVVGLVELGILKGDIEQLIAEQAHRPFFMHGLSHWLGMDVHDVGDYGSSDRGRILEPGMVLTVEPGLYIAPDADVPPQYRGIGIRIEDDIVITATGNENLTASVVKDPDDIEALMALNH | not soluble |
| MTRACNLYVFKNKYVSFNLLDSPNSNPKLLKISLPFNFMDEFEGLLKAVGSAPWYKLIGMVPKLQGDRVVVEMEIDRSKHLQALGTTHGGAIASVLDSAIGLNVNREVVKMGKTAVTAQLNIHYIRPVTEGKIVGVGMPMHIGSKVTVGYGEVRNEEGELVAAGTATFYIIDRRFRD | soluble |
| MTRFLEKRHKKKKATNKERILSYKPIHAIEQENSFRSSRCSNQTVEVSAVEDSRSALVGFFESNEPSESVTLKGKRERQVRFADKTNTVGLLKESLEEKLLASKTLISQLKEENCRLKERLNEVKDQLELKEKIALVQQENNDLEAEVLEWKAKFYESESEKERILASRSRPKDGYEIVQESLAQQPGTTSFYDYKFRQLVHKLTRMNAIHSKHNDKEYHKCDIVNESKDRSITFELFIDEEQEEIEYVPVQLNGVSQKLPSYLQDNISFDVQNAPIFFTKIMHSLFSK | soluble |
| MTRHLAGSFASPPGAEAEGGPVRVTALRAQAFHIPTDLPEADGTFAWNATTLVLVEVEAGGQTGIGYTYSDASIVRLIHHTLAACVIDADAWQVGALWLRMQRQVRNPGRAGLAATAISAVDCALWDLKAKLLGVPLVTLLGAQRANVPIYGSGGFTTYTDEQLREQLVRWVAQDGCRWVKMKIGTHPQEDPQRVAAARAAIGDAGLFVDANGAFSVKEALHYARAFAEQGVEWFEEPVSSDDLRGLALLRERAPARMEIAAGEYAYTLDDFRLLLEAHAVDVLQADVSRCGGVTGFLQAAALCEAFHVPLSAHCAPALHLHVASAVRNLRHQEWFHDHVRIEAMLFDGAPRPSNGAIAPDMARPGCGLAFRHGDAQRYLIH | soluble |
| MTRKIDYLNYEEIQSLKNSLLHNIKHTYISRYMILTALYTGMRPGEIAVLTWSDIDFKNQTININKSYNHDKGRVDNYDSSEIDKSTKNTNSVRIIKVDKKFLDILSQLKQNDHEKIFIGKDGTIPTSNAVNKVWRKQLEKLNIDKPSFHFHSVRHTHVALLPFKGVPLYAISKRLGHANMSTTAKKYAYMLDELKQQVRLEHHHHHH | not soluble |
| MTRLAVEAAEQARLAAEVEAQRIAAETAEHARVVAEAEAKRVADEQALFAAEAEAHRITAEAAEQARMEAEAQAQRDADEHARVTAEAQALEAGKTLRLPEAGTPQLGAVAGVISVTAGSGLFLDATIQAAIEILAALVGTAVSSTTAVGIGTLLYSPSLGNGELPGRMLDLPARVLMPDLPDALNDVAATGGTVDMPYRIYGDQSKYSVVATQPEGGFSPKVPVRALILDPVANAYTFTTSDTPPITLTFPIAAPENSSTTTVAQPIETPAYTGITLEPIEVKAEPLPATSPLDIRDAIYVYPVNSGLPPVYVVFSSPYEGATTKGEHSGRMYDPDNAGGPTQNLDWTTASVTQNGIDLVKLHTGRFEPSDANAVMIDRLEKILRSELSMTDTDKRFYTHELRELERYRALGVADGVEGEVWNNAHTATLEDYKLKDSSESFYTPEAITAENKQVYGELEHHHHHH | not soluble |
| MTRPVIVPFFISHQGCPHRCVFCDQERIAGRAGRLPSAAEIHSAVKTFGRGRPVEAAFYGGTFTSLPRNEQERLLAALQPLRHDGSVRSVRLSTRPDALDAETAGFLKSMGVASVELGVQSMDDQVLDVSGRGHSAADTVRAFDVLRSEGIAVGAQLMPGLPGDSRERSLDSLTRILDLKPVSLRIYPTLVVAGTRLAEFWAEGSYTPLTLADAVPLCADMLLACKRAGVPVIRLGLQPTDILERSVLAGPWHPALRQLVEGELWYRLLERLTTGLAAGTVVSVACAPARISDVVGQRRVNLSRLLERRGIVVTGVAGCPTAAPDTLTLTHAGGTVAGSLTD | not soluble |
| MTRRGVALVARRLPSSPGRVYAVKIDEGEDVHSVLSSLAEAEDLGFAMVTGIGGMAEATVAFYSPPEATYYTVDVKPPEGRVIEVAAMTGNIVKTSQGYSVHIHVALGVSPGKSISGHLVKGVVKPFMEVFVVELVSGQGTPGTSVFDHREGFKASYKRLEAAALEHHHHHH | not soluble |
| MTRSENFILDFTHIYIDENIEQTENIVRIDCSDILGTDLYCTKEGEAEIQKRIENFSINGVHFIDSGNYHYITKIMTDKINKKFSLVLYDHHTDMQKPMVEGMTSCGDWAAQVIEQNENLEQLILVGASEADIQQINVKNQSKLITFSAEELRNNSGREKLDLIETDVPFYISIDKDILDKHYIETNWSQGHMSLGMLEHLLKFFLKDKKIIGVDICGECQIGLPFPEYIEAEEKNAETNIELYEYIGRYMGK | not soluble |
| MTSDGATSTSAAAAAAAAAAARRKPSWRERENNRRRERRRRAVAAKIYTGLRAQGDYNLPKHCDNNEVLKALCVEAGWVVEEDGTTYRKPLPGEIAGTSSRVTPYSSQNQSPLSSAFQSPIPSYQVSPSSSSFPSPSRGEPNNNMSSTFFPFLRNGGIPSSLPSLRISNSCPVTPPVSSPTSKNPKPLPNWESIAKQSMAIAKQSMASFNYPFYAVSAPASPTHRHQFHTPATIPECDESDSSTVDSGHWISFQKFAQQQPFSASMVPTSPTFNLVKPAPQQMSPNTAAFQEIGQSSEFKFENSQVKPWEGERIHDVGMEDLELTLGNGKARG | soluble |
| MTSELKNNEEDYNSSSDEDYDPTKDTDFDPKDEIDDQEECEDGIDEEVEHLKNEKQSDDHTSEKANSTEGSVDVDAIFAELTGLAPKPVVNDTSSKNIPKTEERVYPKSAASASNESTNQKVYPKKTETAGTSSESSIVPGKKRVGLLDAAKSLSKRSKISVLEKSDRDWKDFTTQNNLKEDLESHNRGKGGYLNKMDFLNRADNRQFEKERAFRATARKDTGQ | not soluble |
